Legend:
Assay in all cases: purified protein
Assay type in all cases: biochemical, Vitis vinifera
purified protein [1] = substrate: O=C(O)C1=C[C@@H](O)[C@@H](O)[C@H](O)C1; settings: 2 mM NADP+, pH 9, 100 mM Bis-Tris Propane HCl, 30 °C
purified protein [2] = substrate: NC(=O)c1ccc[n+]([C@@H]2O[C@H](COP(=O)(O)OP(=O)(O)OC[C@H]3O[C@@H](n4cnc5c(N)ncnc54)[C@H](OP(=O)(O)O)[C@@H]3O)[C@@H](O)[C@H]2O)c1; settings: 4 mM shikimate, pH 9, 100 mM Bis-Tris Propane HCl, 30 °C
purified protein [3] = substrate: O=C(O)C1=CC(=O)[C@@H](O)[C@H](O)C1; settings: 0.4 mM NADPH, pH 7, 100 mM Bis-Tris Propane HCl, 30 °C, 3-DHS reduction, pH 7.0

Protein	Km (purified protein [1])	Vmax (purified protein [1])	kcat (purified protein [1])	kcat/Km (purified protein [1])	Km (purified protein [2]; varied: cofactor)	Vmax (purified protein [2]; varied: cofactor)	kcat (purified protein [2]; varied: cofactor)	kcat/Km (purified protein [2]; varied: cofactor)	Km (purified protein [1]; pH 9.0)	Vmax (purified protein [1]; pH 9.0)	kcat (purified protein [1]; pH 9.0)	kcat/Km (purified protein [1]; pH 9.0)	Km (purified protein [2]; pH 9.0, varied: cofactor)	Vmax (purified protein [2]; pH 9.0, varied: cofactor)	kcat (purified protein [2]; pH 9.0, varied: cofactor)	kcat/Km (purified protein [2]; pH 9.0, varied: cofactor)	Km (purified protein [3])	Vmax (purified protein [3])	kcat (purified protein [3])	kcat/Km (purified protein [3])
VvSDH4 (Vitis vinifera) (protein, partial cDNA lacking the first 17 aa (putative transit peptide); E. coli BL21(DE3); GST tag removed) GARRNSTLICVPIMADSVDQMLGQIRKAKEVGGDLVEIRLDYLKNFSPRQDLQFLVKQSPLPTLVTYRPTWEGGQYDGDEGKRLDALRLAIELGADYIDVELQVAPEFINSIQGKTSGKVKIIVSSHNYQNTPSAEELGNLVARIQATGADIVKIATTALDITDCARIFQVLAHSQVPTIGIAMAERGLISRILSAKFGSYLTFGSLEAGVVSAPGQPTVKDLLDLYNFRQIGPDTKVHGVIGKPIGHSKSPHLYNSAFKSVGFNGIYLPLLVDSVKNFLATYSSPDFVGYSYTIPHKEDGLRCCDEIDPIAQAIGAISCMIRRPADGKLMGYNVDYLGAIAAIEEGLRASNGTTSVGSPLAGKLFVVIGAGGAGKALAYGGKEKGARVVVANRTFEKAKELASKVGGEAMTLAELENFHPEDGMILANTTSVGMKPNIDNTPLSKKALSRYSLVFDAIYTPKLTRLLREAQESGAIIVYGTEMFINQAFVQFERFTGLPAPKELIREVLVRNT	146.8 ± 60 µM	27.6 µmol/min/mg	26.1 ± 4.97 s⁻¹	178000 M⁻¹ s⁻¹	53.8 ± 5.8 µM	30 µmol/min/mg	28.9 ± 1.06 s⁻¹	537000 M⁻¹ s⁻¹	–	–	–	–	–	–	–	–	–	–	–	–
VvSDH3 (Vitis vinifera) (protein, E. coli BL21(DE3); GST tag removed after purification) MGSLPFTVSDLQTSVSGVRSNPTLLCTPLMGTTVEQMLTEMRKAKEIGADIVEIRLDCLRNFSPAQDLQILIKQSPLPTLVTYRPIWEGGQYEGDENKRQDALRLAMELGASYIDVELEVAHEFNNSIYGKKPQNFKVIVSSHNFHNTPSTEAIGNLVARIQASGADIVKIATTALDITDVARVLQVTVHSQVPTIAIVMGERGLISRLLSPKFGGYLTYGALEAGAISAPGQPTAKDLLDLYNFRLVKPDTKVYGIIGKPVGHSKSPLLFNAAFKKVGLNAVYVHLLVDDVEKFFNTYSAPDFISGCSCTIPHKEVAIKCMDTIDPIARKIGAINNIVRKPDGKLTAFNTDYIGAIEAIEDGLRESNGSSPAVGSPLAGKLFVVLGAGGAGKSLAYGAKEKGARVVVANRTFERAKDLADKVGGQALTLAEIENFHPEEGMILANTTSVGMKPKINDTPIPKHALKHYSLVFDAIYTPKDTRLLREAKESGKIIVYGTEMLIRQGFEQYKNFTGLPAPEELFRELMSKHA	–	–	–	–	–	–	–	–	27.3 ± 10.4 µM	5.4 µmol/min/mg	5.16 ± 0.56 s⁻¹	189000 M⁻¹ s⁻¹	38.4 ± 11.9 µM	27 µmol/min/mg	26.1 ± 2.68 s⁻¹	680000 M⁻¹ s⁻¹	46.3 ± 18.2 µM	9 µmol/min/mg	8.62 ± 0.93 s⁻¹	186000 M⁻¹ s⁻¹
VvSDH1 (Vitis vinifera) (protein, E. coli BL21(DE3); GST tag removed after purification) MESGGMSKNSTLICVPIMGETIEKMVVDMSKAKTSGADLVEVRLDTLKRFNPRQDLEVLIRKCPLPTLFTYRPKWEGGQYEGDENSRRDALRLAMELGADYVDIELKVAHEFINSIHGRKPEKFKVIVSSHNYQNTPSVEDLGNLVVSIQATGADIVKIATTALEITDVARIFQITVHSQVPVIGLVMGERGLISRILCPKFSGYLTFGSLEPGIVSAPGQPTIKDLLNLYNFRQLGPDTKVFGVIGKPVSHSKSPHLYNEAFKSVGFNGVYVHLLVDDIAKFFHTYSAADFAGFSCTIPHKEAALKCCDEVSPVAKSIGAVNCIIRRPSDGKLFGYNTDYVGAISAIEDGLRDLHKISSTSGSPLAGKLFVVIGAGGAGKALAYGAKEKGARVVIANRTYARARELADAVGGDALSLADLNNFHPENGMILANTTSIGMQPKVDETPISKHALKYYSLVFDAIYTPKITRLLREAQESGATIVTGLEMFIGQAYEQFERFTGLPAPKELFKQFISNLQ	–	–	–	–	–	–	–	–	90 ± 16 µM	100 µmol/min/mg	94.5 ± 7.2 s⁻¹	1.05e+06 M⁻¹ s⁻¹	214.7 ± 56.4 µM	254 µmol/min/mg	239 ± 26.3 s⁻¹	1.11e+06 M⁻¹ s⁻¹	156.9 ± 31.3 µM	102 µmol/min/mg	95.8 ± 10.2 s⁻¹	611000 M⁻¹ s⁻¹
